Measured values from CN116535505A.
Values belong to the molecule of their own block, whether it stands above or below them.

How the values were obtained:
[1] = target: 红细胞胞膜抗原 (Erythrocyte membrane antigen) on human fresh red blood cells (human); experiment: ELISA on formaldehyde-fixed human red blood cells; antibody at 3.125 ng/ml
[2] = target: 红细胞胞膜抗原 (Erythrocyte membrane antigen) on human fresh red blood cells (human); experiment: ELISA on formaldehyde-fixed human red blood cells; antibody at 50 ng/ml
[3] = target: 红细胞胞膜抗原 (Erythrocyte membrane antigen) on human fresh red blood cells (human); experiment: ELISA on formaldehyde-fixed human red blood cells; antibody at 25 ng/ml
[4] = target: 红细胞胞膜抗原 (Erythrocyte membrane antigen) on human fresh red blood cells (human); experiment: ELISA on formaldehyde-fixed human red blood cells; antibody at 12.5 ng/ml
[5] = target: 红细胞胞膜抗原 (Erythrocyte membrane antigen) on human fresh red blood cells (human); experiment: ELISA on formaldehyde-fixed human red blood cells; antibody at 0 ng/ml (blank)
[6] = target: 红细胞胞膜抗原 (Erythrocyte membrane antigen) on human fresh red blood cells (human); experiment: ELISA on formaldehyde-fixed human red blood cells; antibody at 6.25 ng/ml
[7] = target: 红细胞胞膜抗原 (Erythrocyte membrane antigen) on human fresh red blood cells (human); experiment: ELISA on red blood cells; Anti-EM-8F9mut1 stored 21 days at 37 C; antibody at 1.5625 ng/ml
[8] = target: 红细胞胞膜抗原 (Erythrocyte membrane antigen) on human fresh red blood cells (human); experiment: ELISA on red blood cells; Anti-EM-8F9mut1 stored 21 days at 4 C; antibody at 0 ng/ml (blank)
[9] = target: 红细胞胞膜抗原 (Erythrocyte membrane antigen) on human fresh red blood cells (human); experiment: ELISA on red blood cells; Anti-EM-8F9mut1 stored 21 days at 37 C; antibody at 12.5 ng/ml
[10] = target: 红细胞胞膜抗原 (Erythrocyte membrane antigen) on human fresh red blood cells (human); experiment: ELISA on red blood cells; Anti-EM-8F9mut1 stored 21 days at -80 C; antibody at 1.5625 ng/ml
[11] = target: 红细胞胞膜抗原 (Erythrocyte membrane antigen) on human fresh red blood cells (human); experiment: ELISA on red blood cells; Anti-EM-8F9mut1 stored 21 days at 37 C; antibody at 0 ng/ml (blank)
[12] = target: 红细胞胞膜抗原 (Erythrocyte membrane antigen) on human fresh red blood cells (human); experiment: ELISA on red blood cells; Anti-EM-8F9mut1 stored 21 days at 4 C; antibody at 12.5 ng/ml
[13] = target: 红细胞胞膜抗原 (Erythrocyte membrane antigen) on human fresh red blood cells (human); experiment: ELISA on red blood cells; Anti-EM-8F9mut1 stored 21 days at -80 C; antibody at 0 ng/ml (blank)
[14] = target: 红细胞胞膜抗原 (Erythrocyte membrane antigen) on human fresh red blood cells (human); experiment: ELISA on red blood cells; Anti-EM-8F9mut1 stored 21 days at -80 C; antibody at 12.5 ng/ml
[15] = target: 红细胞胞膜抗原 (Erythrocyte membrane antigen) on human fresh red blood cells (human); experiment: ELISA on red blood cells; Anti-EM-8F9mut1 stored 21 days at 4 C; antibody at 1.5625 ng/ml

OD450 (ref 630 nm) [1]: 0.196 OD
OD450 (ref 630 nm) [2]: 1.89 OD
OD450 (ref 630 nm) [3]: 1.3 OD
OD450 (ref 630 nm) [4]: 0.696 OD
OD450 (ref 630 nm) [5]: 0.041 OD
OD450 (ref 630 nm) [6]: 0.408 OD
Molecule: 对照抗体 (antibody)

OD450 (ref 630 nm) [7]: 0.666 OD
OD450 (ref 630 nm) [8]: 0.047 OD
OD450 (ref 630 nm) [1]: 1.28 OD
OD450 (ref 630 nm) [2]: 2.36 OD
OD450 (ref 630 nm) [9]: 2.13 OD
OD450 (ref 630 nm) [10]: 0.647 OD
OD450 (ref 630 nm) [3]: 2.42 OD
OD450 (ref 630 nm) [4]: 2.33 OD
OD450 (ref 630 nm) [11]: 0.057 OD
OD450 (ref 630 nm) [5]: 0.063 OD
OD450 (ref 630 nm) [12]: 2.12 OD
OD450 (ref 630 nm) [13]: 0.051 OD
OD450 (ref 630 nm) [6]: 2 OD
OD450 (ref 630 nm) [14]: 2.15 OD
OD450 (ref 630 nm) [15]: 0.691 OD
B1: Anti-EM-8F9mut1单克隆抗体 (antibody, mouse IgG2a, kappa, V domains shown)
VH: QVPLQQPGAALVKPGASVKLSCQASDYTFTNYNMHWVKQTPGQGLEWIGTIYAGDGDPSYNQKFKGQATLTADKSSSTAYMQLLSLTSEDSAVYYCARGGTRAMDYWGHGTSVTVSS
VL: DVLLTQIPLSLPVSLGDQASLSCRSSQTLVHSDGNTYLAWYLQKPGQSPKLLIYKVSRRFSGVPDRFSGSGSGTDFTLKISRVEAEDLGVYYCFQGSHVPFTFGSGTKLEVKR
